From US10525113B2, “Micellar polypeptide vaccine having pegylated phospholipids as carrier” (INSTITUTE OF BIOPHYSICS, CHINESE ACADEMY OF SCIENCES, priority 2014, dated 2020)
Ends that are not written are not given here. * marks the point of attachment. Palmitoyl = CCCCCCCCCCCCCCCC(=O)*

What was measured:
[1] = Entrapment efficiency of fatty-acidified antigenic polypeptide in PEG-PE micelle (centrifugation, rhodamine fluorescence); format: physicochemical; settings: lipid:MPLA (w/w) 100:1
Protocol: According to the proportions shown in Table 2 and Table 3, the micelles containing different proportions of polypeptides are prepared. The preparation process is carried out in the same manner as described in Embodiment 1. The prepared micelle vaccine solutions of different proportions are subjected to 14,000 g high-speed centrifugation for 30 minutes. The undissolved free antigenic polypeptide is separated from the antigen entrapped by micelle in the solution.
The maximal excitation wavelength of the rhodamine fluorescence labeled by the polypeptide is 535 nm and the maximum emission wavelength is 590 nm.
The antigen content in the solution is detected by fluorescence spectrophotometry, and then the effective entrapment efficiency of antigenic polypeptide is calculated according to the formula (see Table 2. Table 3, line 3). It can be seen that, in the condition where the mass ratio of PEG-PE to the fatty-acid-modified polypeptide is greater than or equal to 10:1, the entrapment efficiency is about 100%.

[2] = 100 μL subcutaneous, shoulder; 0 hour to 7 days; FIG. 3
Protocol: 20 μL of 10 mg/mL DMSO stock solution of rhodamine-labeled, fatty-acidified E7 polypeptide (sequence: palmitic acid-[sequence], rhodamine labeled in amino acid K, synthesized in Jill Biochemical Co., Ltd.) is added to 1 mL of sterile water to obtain a fluorescent polypeptide solution with the concentration of 0.2 mg/mL.
10 mg of PEG-PE powder is weighed and dissolved in 1 mL of chloroform in a test tube, and 0.2 mL of solution of rhodamine-labeled, fatty-acidified E7 polypeptide in methanol (1 mg/mL) is taken such that in micelle. The solution is gently shaken according to the method in Embodiment 1 to mix evenly. Nitrogen is used to blow and dry the solution to form a uniform thin membrane. The residual organic solvent and moisture are completely removed in a vacuum drier overnight. 1 mL of sterile normal saline is added, and 53° C. water bath incubation is conducted for 30 minutes for hydrated lipid membrane. A light purple uniform transparent solution is obtained, in which the concentration of fluorescent polypeptide is 0.2 mg/mL. […]
7 mg of DPPC and 3 mg of cholesterol are dissolved in chloroform separately and then mixed in a test tube, and 0.2 mL of solution of rhodamine-labeled, fatty-acidified E7 polypeptide in methanol (1 mg/mL) is taken. […] The concentration of fluorescence polypeptide is 0.2 mg/mL. […]

[3] = water / aqueous solution
Protocol: Thus, free antigenic polypeptide can be separated from the antigenic polypeptide loaded on micelle, and then the entrapment efficiency of antigenic polypeptide is calculated based on the change in the content of the antigenic polypeptide loaded on micelle in the solution. The entrapment efficiency=the amount of antigen to be entrapped/total antigen ×100%.

Substance | entrapment efficiency (%) ([1]; lipid:peptide (w/w) 1:1) | entrapment efficiency (%) ([1]; lipid:peptide (w/w) 2:1) | entrapment efficiency (%) ([1]; lipid:peptide (w/w) 5:1) | entrapment efficiency (%) ([1]; lipid:peptide (w/w) 10:1) | entrapment efficiency (%) ([1]; lipid:peptide (w/w) 20:1) | entrapment efficiency (%) ([1]; lipid:peptide (w/w) 50:1) | subcutaneous diffusion / localized retention at injection site [2] | solubility / state in water [3]
palmitic acid-EQLESIINFEKLTEWKD (Palmitoyl-EQLESIINFEKLTEWKD) [OT-1 Antigenic Polypeptide] | 27.91 | 40.10 | 91.76 | 100.00 | 100.00 | 100.00 |  | 
palmitic acid-GQAEPDRAHYNIVTFCCKCD (Palmitoyl-GQAEPDRAHYNIVTFCCKCD; cysteine pairing not given here) [E7 Antigenic Polypeptide] | 25.48 | 67.76 | 97.99 | 100.00 | 100.00 | 100.00 | subcutaneous localized retention at the injection site is evident | present in an aggregated form in aqueous solution
